T1: SAPK3(h) (human, UniProt P53778 1-367)
T1 sequence (looked up): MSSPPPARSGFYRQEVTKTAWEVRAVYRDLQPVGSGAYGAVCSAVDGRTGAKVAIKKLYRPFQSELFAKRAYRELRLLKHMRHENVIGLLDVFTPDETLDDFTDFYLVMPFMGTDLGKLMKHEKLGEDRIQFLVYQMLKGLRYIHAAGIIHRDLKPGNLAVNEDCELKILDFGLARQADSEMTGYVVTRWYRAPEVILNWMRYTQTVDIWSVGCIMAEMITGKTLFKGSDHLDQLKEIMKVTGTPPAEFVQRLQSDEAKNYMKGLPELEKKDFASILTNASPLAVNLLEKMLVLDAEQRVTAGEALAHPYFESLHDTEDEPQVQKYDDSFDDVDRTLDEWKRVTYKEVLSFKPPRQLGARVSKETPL

T2: PKCε(h) (human, UniProt Q02156 1-737)
T2 sequence (looked up): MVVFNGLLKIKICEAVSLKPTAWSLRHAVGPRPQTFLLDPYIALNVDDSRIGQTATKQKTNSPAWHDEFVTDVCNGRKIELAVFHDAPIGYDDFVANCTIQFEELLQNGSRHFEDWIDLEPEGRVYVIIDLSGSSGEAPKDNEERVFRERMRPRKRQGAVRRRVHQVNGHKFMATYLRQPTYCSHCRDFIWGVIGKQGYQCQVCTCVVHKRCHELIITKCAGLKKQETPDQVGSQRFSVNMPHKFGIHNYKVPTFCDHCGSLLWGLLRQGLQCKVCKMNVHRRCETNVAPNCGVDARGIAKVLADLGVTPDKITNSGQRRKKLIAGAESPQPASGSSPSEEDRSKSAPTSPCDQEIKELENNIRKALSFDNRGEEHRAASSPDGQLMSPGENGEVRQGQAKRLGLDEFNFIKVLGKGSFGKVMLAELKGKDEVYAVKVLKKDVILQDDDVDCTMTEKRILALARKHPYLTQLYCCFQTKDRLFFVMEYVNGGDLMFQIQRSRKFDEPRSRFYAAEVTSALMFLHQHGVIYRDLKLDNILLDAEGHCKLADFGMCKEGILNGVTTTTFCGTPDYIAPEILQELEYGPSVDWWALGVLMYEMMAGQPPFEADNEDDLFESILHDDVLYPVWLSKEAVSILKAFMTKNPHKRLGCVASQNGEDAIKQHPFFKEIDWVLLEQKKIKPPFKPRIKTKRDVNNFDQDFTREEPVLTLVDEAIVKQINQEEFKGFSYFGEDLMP

T3: PRAK(h) (human, UniProt Q8IW41 1-473, limits assumed)
T3 sequence (looked up): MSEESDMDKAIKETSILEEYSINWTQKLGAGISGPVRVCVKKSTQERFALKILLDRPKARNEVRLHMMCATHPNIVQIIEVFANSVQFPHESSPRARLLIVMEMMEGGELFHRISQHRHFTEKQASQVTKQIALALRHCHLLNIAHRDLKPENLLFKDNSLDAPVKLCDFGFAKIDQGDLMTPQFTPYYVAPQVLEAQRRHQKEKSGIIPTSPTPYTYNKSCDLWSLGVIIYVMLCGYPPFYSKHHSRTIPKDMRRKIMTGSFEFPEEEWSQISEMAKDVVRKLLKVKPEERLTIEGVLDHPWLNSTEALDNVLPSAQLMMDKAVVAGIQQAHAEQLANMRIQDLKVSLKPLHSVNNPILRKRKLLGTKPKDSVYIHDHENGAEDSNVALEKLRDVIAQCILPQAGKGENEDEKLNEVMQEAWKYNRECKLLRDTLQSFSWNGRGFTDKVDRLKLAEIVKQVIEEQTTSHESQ

T4: SGK2(h) (human, UniProt Q9HBY8 1-367, limits assumed)
T4 sequence (looked up): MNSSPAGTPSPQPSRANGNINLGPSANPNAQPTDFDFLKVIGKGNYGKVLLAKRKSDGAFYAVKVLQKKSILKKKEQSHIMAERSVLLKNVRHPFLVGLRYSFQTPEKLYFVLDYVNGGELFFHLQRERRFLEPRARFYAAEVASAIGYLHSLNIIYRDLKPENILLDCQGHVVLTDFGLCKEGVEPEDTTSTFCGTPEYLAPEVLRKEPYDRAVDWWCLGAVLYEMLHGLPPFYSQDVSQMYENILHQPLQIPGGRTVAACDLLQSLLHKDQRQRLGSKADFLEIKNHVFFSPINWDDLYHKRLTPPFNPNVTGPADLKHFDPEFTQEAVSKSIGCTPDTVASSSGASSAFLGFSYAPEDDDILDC

T5: SGK(h) (human, UniProt O00141 60-431, limits assumed)
T5 sequence (looked up): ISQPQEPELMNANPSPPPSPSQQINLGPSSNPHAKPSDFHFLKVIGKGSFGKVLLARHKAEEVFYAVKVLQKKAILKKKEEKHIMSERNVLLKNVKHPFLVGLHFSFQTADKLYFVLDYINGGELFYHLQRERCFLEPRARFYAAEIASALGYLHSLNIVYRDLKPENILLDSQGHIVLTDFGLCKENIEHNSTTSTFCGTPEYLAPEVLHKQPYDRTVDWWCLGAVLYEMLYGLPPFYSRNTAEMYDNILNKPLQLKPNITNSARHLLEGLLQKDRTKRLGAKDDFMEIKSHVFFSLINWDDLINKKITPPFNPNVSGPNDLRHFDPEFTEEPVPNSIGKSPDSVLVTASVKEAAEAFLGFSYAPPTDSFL


Columns and labels:
Assay in all cases: cell-based or functional assay
IR(h), activated = IR(h), activated (human, UniProt P06213 1005-1310, limits assumed)
Sequence of IR(h), activated (P06213 1005-1310 limits assumed): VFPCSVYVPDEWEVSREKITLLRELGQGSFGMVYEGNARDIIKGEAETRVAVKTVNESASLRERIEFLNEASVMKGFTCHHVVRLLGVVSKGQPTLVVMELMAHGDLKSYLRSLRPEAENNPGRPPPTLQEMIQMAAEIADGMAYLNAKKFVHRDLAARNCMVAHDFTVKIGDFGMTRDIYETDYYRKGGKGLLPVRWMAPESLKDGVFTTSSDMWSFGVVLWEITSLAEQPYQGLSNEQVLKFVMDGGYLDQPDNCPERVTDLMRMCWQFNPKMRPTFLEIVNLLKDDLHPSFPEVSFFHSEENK

CDK5/p25(h) = CDK5/p25(h) (human, UniProt Q00535 1-292; Q15078 99-307)
SAPK3(h) = molecular target: T1, SAPK3(h)
PKCε(h) = molecular target: T2, PKCε(h)
PRAK(h) = molecular target: T3, PRAK(h)
SGK2(h) = molecular target: T4, SGK2(h)
FGFR2(h) = FGFR2(h) (human, UniProt P21802 456-770, limits assumed)
Sequence of FGFR2(h) (P21802 456-770 limits assumed): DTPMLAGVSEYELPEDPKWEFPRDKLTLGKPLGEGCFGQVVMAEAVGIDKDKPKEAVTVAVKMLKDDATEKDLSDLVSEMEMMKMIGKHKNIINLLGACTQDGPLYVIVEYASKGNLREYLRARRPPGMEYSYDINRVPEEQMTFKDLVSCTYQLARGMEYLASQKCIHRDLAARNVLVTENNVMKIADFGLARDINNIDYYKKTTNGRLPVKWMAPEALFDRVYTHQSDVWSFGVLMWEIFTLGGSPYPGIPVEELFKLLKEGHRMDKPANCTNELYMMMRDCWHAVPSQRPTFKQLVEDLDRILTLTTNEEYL

SIK(h) = SIK(h) (human, UniProt P57059 1-783, limits assumed)
Sequence of SIK(h) (P57059 whole entry): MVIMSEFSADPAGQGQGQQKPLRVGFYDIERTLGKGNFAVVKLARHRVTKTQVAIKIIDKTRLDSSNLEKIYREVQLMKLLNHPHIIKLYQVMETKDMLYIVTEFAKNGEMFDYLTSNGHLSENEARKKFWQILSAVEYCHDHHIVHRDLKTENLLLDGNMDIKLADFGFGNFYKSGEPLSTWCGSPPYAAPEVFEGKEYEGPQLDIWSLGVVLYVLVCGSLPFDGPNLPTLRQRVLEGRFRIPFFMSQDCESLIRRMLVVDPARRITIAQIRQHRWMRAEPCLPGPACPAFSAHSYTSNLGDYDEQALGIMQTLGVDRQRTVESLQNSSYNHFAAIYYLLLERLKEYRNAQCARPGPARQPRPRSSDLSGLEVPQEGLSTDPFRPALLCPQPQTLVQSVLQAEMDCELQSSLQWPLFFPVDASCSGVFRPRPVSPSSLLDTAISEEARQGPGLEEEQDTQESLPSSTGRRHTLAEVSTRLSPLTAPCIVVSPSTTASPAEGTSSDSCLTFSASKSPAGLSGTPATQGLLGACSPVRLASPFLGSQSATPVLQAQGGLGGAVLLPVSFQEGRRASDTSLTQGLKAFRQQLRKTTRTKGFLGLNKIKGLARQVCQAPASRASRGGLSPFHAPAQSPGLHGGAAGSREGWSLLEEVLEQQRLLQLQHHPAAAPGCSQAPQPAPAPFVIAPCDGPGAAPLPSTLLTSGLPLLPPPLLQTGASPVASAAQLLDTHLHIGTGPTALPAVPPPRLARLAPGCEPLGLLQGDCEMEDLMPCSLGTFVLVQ

SGK(h) = molecular target: T5, SGK(h)

| Binder | % activity, 100 µM (IR(h), activated) [%] | % activity, 100 µM (CDK5/p25(h)) [%] | % activity, 100 µM (SAPK3(h)) [%] | % activity, 100 µM (PKCε(h)) [%] | % activity, 100 µM (PRAK(h)) [%] | % activity, 100 µM (SGK2(h)) [%] | % activity, 100 µM (FGFR2(h)) [%] | % activity, 100 µM (SIK(h)) [%] | % activity, 100 µM (SGK(h)) [%] |
| --- | --- | --- | --- | --- | --- | --- | --- | --- | --- |
| KAFAKLAARLYRKALARQLGVAA [MMI-0400] | 59 | 192 | 79 | 59 | 118 | 98 | 18 | 68 | 54 |
| FAKLAARLYRKALARQLGVAA [MMI-0300] | 79 | 89 | 84 | 79 | 128 | 56 | 14 | 66 | 48 |

From patent US20140072613A1 (published 2014)
